This note sets out measurements from publication PMC9898218 (Journal of materials chemistry. B, 2023).

The data set deals with the molecule itself. Nature of the data set: SEC. (Size exclusion chromatography separates by hydrodynamic size, large species first.)

B1: Cowpea chlorotic mottle virus (CCMV) coat protein (natural protein)
chain: MSTVGTGKLTRAQRRAAARKNKRNTRVVQPVIVEPIASGQGKAIKAWTGYSVSKWTASCAAAEAKVTSAITISLPNELSSERNKQLKVGRVLLWLGLLPSVSGTVKSCVTETQTTAAASFQVALAVADNSKDVVAAMYPEAFKGITLEQLTADLTIYLYSSAALTEGDVIVHLEVEHVRPTFDDSFTPVY
For the protein B1, the binding result is on record as “binds”.
